Laboratory results taken from the DeepSol protein solubility set.

experiment: soluble on expression in E. coli; label from the status in PepcDB or PDB records

Sequence | soluble on expression in E. coli
MLNYLFENNCLLCGKEVSPLRSLCENCEEKVLKNGPSFYREVHRKYELFVYSDYTDEIERIIRLYKYHGEVSLSGTLVKLFLKLYSYFPREANLITWVPSSLDSLEDRGFDHMRLLAKRISKELGIPFDAVLENVSEGRQVEKSKEERKRTGRFICKKDPPQNVILIDDVLTTGTSVRDCVETLFRNGVSKVFVYVLAKTRR | not soluble
MGSDKIHHHHHHMGQRIIIDPVTRIEGHAKISIHLDDHGDVAETRFHVTEFRGFERFCIGRPFWEMPGITARICGICPVSHLLASARAGDGILAVLIPPAAEKLRRLMNLAQIIQSHALSFFHLSGPDLMLGFDSDPAQRNIFGLIAADPDVARNGIRLRQFGQEVIEMLGGRKIHPAWAVPGGVRSGLSASSRDHIRAKLPEMLTIACDALGRLKQLSAKYQREIETFGVFPSLYLGMVGPGGRWMHYGGKLRVIDHTGNILIDELDPIDYRDVIGEAVEPWSYLKFPYIRALGYPQGMYRVGPLARINICTTMGAERADAELRELRQAVGPVIHGSFYYHHARLIEIIAALERMEVLVEDDDLLSTELRADAGVNRHEAVGVSEAPRGTLFHHYRVDEKGLITDVNLIIATGQNNLAINRTVGQIAQSYIRHGQFDEGILNRIEAGVRAYDPCLSCSTHAVGQMAMEVDLYNAQGELINRLSR | not soluble
MSLIIETPSKVILFGEHAVVYGYRAISMAIDLTSTIEIKETQEDEIILNLNDLNKSLGLNLNEIKNINPNNFGDFKYCLCAIKNTLDYLNIEPKTGFKINISSKIPISCGLGSSASITIGTIKAVSGFYNKELKDDEIAKLGYMVEKEIQGKASITDTSTITYKGILEIKNNKFRKIKGEFEEFLKNCKFLIVYAEKRKKKTAELVNEVAKIENKDEIFKEIDKVIDEALKIKNKEDFGKLMTKNHELLKKLNISTPKLDRIVDIGNRFGFGAKLTGAGGGGCVIILVNEEKEKELLKELNKEDVRIFNCRMMNEGGSHHHHHH | soluble
QVQLQESGGGLVQPGGSLRLSCAASGFAFSGYAMSWVRQAPGKGLEWVSGINRDGSTSYTAPVKGRFTISRDNAKNILYLQMNSLRPEDTAVYYCAKWLGGRDWYDRGQGTQVTVS | soluble
MVLFEKPGKENTRKTLEIAIQKASELSSKKLLIASATGYSARMALEMIPEDMKLVVVTHHAGFEEPDTQEFDEELRKLLKEKGHDVLTATHALSAGERSLRRKFGGIYPLEIIANTLRMFSEGVKVGVEITLMAADAGLVKTSELVVACGGTESGLDSAIVVKPANSPNLFDLKITEILCKPLIS | soluble
MAKTITKDSFFHSRLQQFVANSLFPAGAGDWYKNKGYGKKGEVDDEAPFRDFVEKQKTDKKSHYYKEFQGLDLSLKKVKTKLVSGESCQLEVMKCQPESNEPKKPGTGKHIVYFPGANTYYQACFRDISTACKETGATVHAFNFPGTGLSSGKVREANDLINAGISVVSSLIKQGVHPDDIILQGDCYGASIALEVKKQLEDQADIKVRAIMNNVFKSFKAAVCDMITQSPWLPNILKSIVKRLLEFTGWHVTPGKKYKHADPYQCHIQHLGDQTLESSTLSGKVSKYHHEIQTGQTKSQKRAPITDTCPEEYRKDRDELDRKHYVRVKESAKERLASKFGVDKFGRVNAHFADLCELEMLDGQSVYQGFVNDYIARSNAYIEKHPQKGIKEVQDDLRKLHYLQPADSIEITEDEAQDFNTVVDLITEEQQLRHDRFNDNTIGKSISM | not soluble
MTDNSNIRVVVGMSGGVDSSVTALLLKEQGYDVIGVFMKNWDDTDEFGVCTATEDYKDVAAVADQIGIPYYSVNFEKEYWDRVFEYFLAEYRAGRTPNPDVMCNKEIKFKAFLDYAMTLGADYVATGHYAQVTRDENGIVHMLRGADNNKDQTYFLSQLSQEQLQKTLFPLGHLQKPEVRRIAEEAGLATAKKKDSTGICFIGEKNFKDFLGQYLPAQPGRMMTVDGRDMGEHAGLMYYTIGQRGGLGIGGQHGGDNKPWFVVGKDLSKNILYVGQGFYHDSLMSTSLTASEIHFTRDMPNEFKLECTAKFRYRQPDSKVTVYVKGNQARVVFDDLQRAITPGQAVVFYNEQECLGGGMIDQAYRDDKICQYIMAGDPLEHHHHHH | not soluble
MGSSHHHHHHSSGLVPRGSHMSNQEAIGLIDSGVGGLTVLKEALKQLPNERLIYLGDTARCPYGPRPAEQVVQFTWEMADFLLKKRIKMLVIACNTATAVALEEIKAALPIPVVGVILPGARAAVKVTKNNKIGVIGTLGTIKSASYEIAIKSKAPAIEVTSLACPKFVPIVESNQYRSSVAKKIVAETLQALQLKGLDTLILGCTHYPLLRPVIQNVMGSHVTLIDSGAETVGEVSMLLDYFDIAHTPEAPTQPHEFYTTGSAKMFEEIASSWLGIENLKAQQIHLGGNEND | soluble
MNDMRQITNLGRNIENKSFSIIDEEAGPHSFAQEEWEVVRRIIHATADFDYKNITKIHPQAIDSGIQALKKGCPIVCDVQMILSGLNPERLKVYGCKTYCFISDEDVIENAKRKNSTRAIESIQKANSFNLLNESIIVIGNAPTALLEIEKLIRQEGIKPALIVGVPVGFVSAKESKESILKLEYYNVTSIPYILTMGRKGGSTIAVAILHALLLLSSKRGERLEHHHHHH | soluble
MDRKTRLSEPPTLALRLKPYKTAIQQLRSVIRALKENTTVTFLPTPSLILQTVRSHCVSKITFNSSCLYITDKSFQPKTINNSTPLLGNFMYLTSSKDLTKFYVQDISDLSAKISMCAPDFNMEFSSACVHGQDIVRESENSAVHVDLDFGVVADLLKWIGPHTRVKRNVKKAPCPTGTVQILVHAGPPAIKFILTNGSELEFTSNNRVSFHGVKNMRINVQLKNFYQTLLNCAVTKLPCTLRIVTEHDTLLYVASRNGLFAVENFLTEEPFQRGDPFDKNYVGNSGKSR | soluble
ADTFNLAKDIHSRILSIDTHTDTPLWFKNGYSVGLRKDNMVSIPKMEEGKLDAQFLAAFIWQGKRDDASSQKAVESTTRLIQSIYDEVEQYKDFCGIALTEEDLVRLKNEGKKAFFIGIENGYAIGKDLKNIKKYKQMGVNYITLCHSYDNDICHSSTHTEDATQGLTQFGREVVKEMNRLGIMIDISHASEGTFWDVIKYSAQPIIASHSSSKALCDHDRNLTDEQLRALAKNGGVAQLCLLDAYINKKTKAASICDAVEHLDHMIKVAGIDHVGIGTDFDGGGGLQGCRGDNDLINLTIKMIEKGYTEEDLRKIWGGNLLRVMKQVQEAPLLSSKKRR | not soluble
MAHHHHHHMSKLIKLDCGVQHYAWGKEAAESYVAKMKGEGNKEGKYAELWVGTHPNCPSKTFSGQNLDDFLKNDNNMSRFVHPKQQADPRFRDTVPFLLKLLSVQTALSIQAHPNKQLAEKLHRENPEKYKDPNHKPELVVALTPFEALCCFRPLKDILEFLESASPLKTLLGPAADVLPGEVEDSEAIKHMMDIVYNTDAKKHAEALQEHAEELRSRGGEMTKEDSVFLRVLYQYPDDMGCWMVYFLNYVQLAPGEGLFLADSEPHAYLFGDSVEIMACSDNVVRAGLTPKWKDVPTLLRMLRYGTDGLERAKFERYRAPEGSEWELQHYSPPREFQDFSLYRIEHRVERQGQTHIKLPTVGLGFCVEGCGIVNGERVRLGECFLVPYGDLKIEAFGDFQIFVASMNYSLHSASHM | soluble
MNIGIIGTGNMGNILIDAFLETRAVKPSCLTIINRTPAKAYHIKEKYPSVHIAKTIPEVIEQSQLIFICVKPIDIYPILKKYAEHFSDETCLVSITSPISPSQLETLVPCHVARIIPSITNRALSGASLFTFGDNCSEEWQQKLLRLFKNISTPLVIEEDITRVSSDIASCGPAFFSYLLQCFINAAVDKTNITHEEATTLVSEMVVGMGKLLEKEIFTLPTLQEKVCVKGGVTGEGIRVLEEHVGDMFHKLIERTHEKFDEDLECVDQQFNKHTLEHHHHHH | soluble
MAHHHHHHMPPLTLEQVLARSMRLPRKHMKHTATPMASNPAIGISTPLDNSLGRGDKSVAKLFSLIEKDEESTAAGRPFIHQSNNLIRNSHDLLTYLHTAKRMRAWEDALRSFAEVTKMLLINQTEEGDGVSLTLREGAEGAEGVTASVSHLALLLDTCASAKQWHLVEQIGEIFRSQSRQTLIDAVAVLANTKKETIGEGLYGWERALHFLQTRIPPEEQPVEAYNACIAACETALEWEGALAIVRSMGPNPLQNLDSKVFSGTTGIGVASAGSTVEGVSSSLGTEAREESVLATFPPPVPDVVTYATLISVLEQSGKEALASEVLQRLPPVEKEEITASYAALIHVWSEQKYRNHRRRF | not soluble
